Data as given in PMC8032985.

Legend:
Test in all cases: MST; NT-647-NHS-labelled PP2A subunit at 20 nM as target, 12-point twofold dilution series of unlabelled ARPP as ligand; SEC buffer with 0.05% Tween-20; triplicate; single-site binding model
[1] = target: PP2A scaffolding subunit PR65α, full length (UniProt P30153)
[2] = target: PP2A regulatory subunit B56γ
[3] = target: PP2A regulatory subunit B56α
Chain of PP2A regulatory subunit B56α (Q15172 whole entry): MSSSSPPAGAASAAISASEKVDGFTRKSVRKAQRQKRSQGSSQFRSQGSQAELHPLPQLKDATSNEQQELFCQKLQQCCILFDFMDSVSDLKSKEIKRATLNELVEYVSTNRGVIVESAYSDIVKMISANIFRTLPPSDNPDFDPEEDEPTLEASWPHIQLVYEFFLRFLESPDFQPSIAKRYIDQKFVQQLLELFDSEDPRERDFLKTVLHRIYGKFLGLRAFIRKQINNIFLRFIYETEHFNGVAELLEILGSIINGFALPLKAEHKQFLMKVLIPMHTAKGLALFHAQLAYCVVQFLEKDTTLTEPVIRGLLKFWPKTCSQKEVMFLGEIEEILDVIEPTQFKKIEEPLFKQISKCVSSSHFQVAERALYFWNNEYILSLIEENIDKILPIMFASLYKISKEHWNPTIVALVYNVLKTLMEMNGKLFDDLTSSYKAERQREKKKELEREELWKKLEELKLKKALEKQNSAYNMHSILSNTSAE

Chain of PP2A scaffolding subunit PR65α, full length (P30153 whole entry): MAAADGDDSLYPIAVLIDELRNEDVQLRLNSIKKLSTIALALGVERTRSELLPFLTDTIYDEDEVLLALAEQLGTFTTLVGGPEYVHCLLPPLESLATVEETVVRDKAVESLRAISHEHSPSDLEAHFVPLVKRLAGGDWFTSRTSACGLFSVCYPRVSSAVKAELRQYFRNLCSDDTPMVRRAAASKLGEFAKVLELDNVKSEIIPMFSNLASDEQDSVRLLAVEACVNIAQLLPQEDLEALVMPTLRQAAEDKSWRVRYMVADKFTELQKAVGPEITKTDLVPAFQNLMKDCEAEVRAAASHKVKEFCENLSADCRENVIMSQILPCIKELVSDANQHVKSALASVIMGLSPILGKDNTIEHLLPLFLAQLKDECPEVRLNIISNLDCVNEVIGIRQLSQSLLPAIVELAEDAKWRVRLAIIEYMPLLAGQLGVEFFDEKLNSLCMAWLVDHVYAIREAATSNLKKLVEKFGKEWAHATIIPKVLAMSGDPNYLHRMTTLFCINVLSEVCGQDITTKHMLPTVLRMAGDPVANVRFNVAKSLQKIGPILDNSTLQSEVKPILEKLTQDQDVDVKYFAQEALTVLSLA
Chain of PP2A regulatory subunit B56γ (Q13362 whole entry): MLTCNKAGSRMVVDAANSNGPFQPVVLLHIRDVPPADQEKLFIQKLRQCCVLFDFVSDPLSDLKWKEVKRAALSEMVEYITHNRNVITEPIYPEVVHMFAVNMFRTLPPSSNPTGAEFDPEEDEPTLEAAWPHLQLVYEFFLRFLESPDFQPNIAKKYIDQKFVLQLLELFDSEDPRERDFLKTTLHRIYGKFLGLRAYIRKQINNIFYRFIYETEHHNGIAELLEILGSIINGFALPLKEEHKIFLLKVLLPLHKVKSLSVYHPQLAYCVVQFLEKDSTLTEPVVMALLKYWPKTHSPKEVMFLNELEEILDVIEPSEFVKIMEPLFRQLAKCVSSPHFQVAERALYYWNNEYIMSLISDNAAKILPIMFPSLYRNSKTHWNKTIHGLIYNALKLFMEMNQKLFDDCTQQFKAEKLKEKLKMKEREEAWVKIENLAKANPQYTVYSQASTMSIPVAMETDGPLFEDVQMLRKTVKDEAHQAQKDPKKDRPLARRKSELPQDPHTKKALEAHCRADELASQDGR

Substance	Kd [1] [µM]	Kd [2] [µM]	Kd [3] [µM]
ARPP-16 (splice variant of ARPP-19), wild type (natural protein)	5.4	710	
ARPP-16 S88E phosphomimicking mutant (natural protein; other documents disagree on this pair)			130
ARPP-16 S46E phosphomimicking mutant (natural protein)	1	440	
ARPP-16 S88E phosphomimicking mutant (natural protein)	3.3	200	
ARPP-16 S46E phosphomimicking mutant (natural protein; other documents disagree on this pair)			110
ARPP-16 (splice variant of ARPP-19), wild type (natural protein; other documents disagree on this pair)			80
